Substitutions are numbered along the chain they refer to.

B1: humanized anti-human PD-L1 monoclonal antibody VLS10-VHS7 (antibody, human IgG1, kappa, V domains shown)
VH: QVQLVQSGAEVKKPGSSVKVSCTASGFNIEDTYIHWVRQAPGQGLEWMGRIDPANGNTKYDPKFQGRVTITADTSTNTAYMELSSLRSEDTAVYYCGRGLGAWFAYWGQGTLVTVSS
VL: DIQMTQSPSSLSASVGDRVTITCKASQDVHTAVAWIHQKPGKAPKLLIYSASNRYTGVPSRFSGSGSGTDFTFTISSLQPEDIATYYCQQHYITPLTFGQGTKLEIKR
B2: humanized anti-human PD-L1 monoclonal antibody VLS15-VHS12 (antibody, human IgG1, kappa, V domains shown)
VH: B1 VH with Q1E, T23K
VL: B1 VL with H37Q, A43S
B3: humanized anti-human PD-L1 monoclonal antibody VLS10-VHS7 P3 (antibody, human IgG1, kappa, V domains shown)
VH: B1 VH with G56A
VL: B1 VL
B4: humanized anti-human PD-L1 monoclonal antibody VLS10-VHS7 P1 (antibody, human IgG1, kappa, V domains shown)
VH: B1 VH with N55Q
VL: B1 VL
B5: humanized anti-human PD-L1 monoclonal antibody VLS15-VHS12 P3 (antibody, human IgG1, kappa, V domains shown)
VH: B1 VH with Q1E, T23K, G56A
VL: B1 VL with H37Q, A43S
B6: humanized anti-human PD-L1 monoclonal antibody VLS15-VHS12 P2 (antibody, human IgG1, kappa, V domains shown)
VH: B1 VH with Q1E, T23K, N55S
VL: B1 VL with H37Q, A43S
B7: humanized anti-human PD-L1 monoclonal antibody VLS10-VHS7 P2 (antibody, human IgG1, kappa, V domains shown)
VH: B1 VH with N55S
VL: B1 VL
B8: humanized anti-human PD-L1 monoclonal antibody VLS15-VHS12 P1 (antibody, human IgG1, kappa, V domains shown)
VH: B1 VH with Q1E, T23K, N55Q
VL: B1 VL with H37Q, A43S
B9: humanized anti-human PD-L1 monoclonal antibody VLS9-VHS5 (antibody, human IgG1, kappa, V domains shown)
VH: B1 VH with V68A, N77S
VL: B1 VL with I36Y, H37Q
B10: humanized anti-human PD-L1 monoclonal antibody VLS9-VHS1 (antibody, human IgG1, kappa, V domains shown)
VH: B1 VH with T74E, N77S
VL: B1 VL with I36Y, H37Q
B11: humanized anti-human PD-L1 monoclonal antibody VLS10-VHS5 (antibody, human IgG1, kappa, V domains shown)
VH: B1 VH with V68A, N77S
VL: B1 VL
B12: humanized anti-human PD-L1 monoclonal antibody VLS15-VHS14 (antibody, human IgG1, kappa, V domains shown)
VH: B1 VH with Q1E, T23K, M48I, V68A
VL: B1 VL with H37Q, A43S
B13: humanized anti-human PD-L1 monoclonal antibody VLS9-VHS7 (antibody, human IgG1, kappa, V domains shown)
VH: B1 VH
VL: B1 VL with I36Y, H37Q
B14: humanized anti-human PD-L1 monoclonal antibody VLS15-VHS13 (antibody, human IgG1, kappa, V domains shown)
VH: B1 VH with Q1E, T23K, M48I, V68A, T74E
VL: B1 VL with H37Q, A43S
B15: humanized anti-human PD-L1 monoclonal antibody VLS9-VHS8 (antibody, human IgG1, kappa, V domains shown)
VH: B1 VH with V68A
VL: B1 VL with I36Y, H37Q
B16: humanized anti-human PD-L1 monoclonal antibody VLS10-VHS3 (antibody, human IgG1, kappa, V domains shown)
VH: B1 VH with N77S
VL: B1 VL
B17: humanized anti-human PD-L1 monoclonal antibody VLS10-VHS6 (antibody, human IgG1, kappa, V domains shown)
VH: B1 VH with V68A, T74E
VL: B1 VL
B18: humanized anti-human PD-L1 monoclonal antibody VLS9-VHS2 (antibody, human IgG1, kappa, V domains shown)
VH: B1 VH with V68A, T74E, N77S
VL: B1 VL with I36Y, H37Q
B19: humanized anti-human PD-L1 monoclonal antibody VLS9-VHS3 (antibody, human IgG1, kappa, V domains shown)
VH: B1 VH with N77S
VL: B1 VL with I36Y, H37Q
B20: humanized anti-human PD-L1 monoclonal antibody VLS10-VHS8 (antibody, human IgG1, kappa, V domains shown)
VH: B1 VH with V68A
VL: B1 VL
B21: humanized anti-human PD-L1 monoclonal antibody VLS10-VHS1 (antibody, human IgG1, kappa, V domains shown)
VH: B1 VH with T74E, N77S
VL: B1 VL
B22: humanized anti-human PD-L1 monoclonal antibody VLS9-VHS4 (antibody, human IgG1, kappa, V domains shown)
VH: B1 VH with T74E
VL: B1 VL with I36Y, H37Q
B23: humanized anti-human PD-L1 monoclonal antibody VLS10-VHS4 (antibody, human IgG1, kappa, V domains shown)
VH: B1 VH with T74E
VL: B1 VL
B24: humanized anti-human PD-L1 monoclonal antibody VLS15-VHS11 (antibody, human IgG1, kappa, V domains shown)
VH: B1 VH with Q1E, T23K, T74E
VL: B1 VL with H37Q, A43S
B25: humanized anti-human PD-L1 monoclonal antibody VLS10-VHS2 (antibody, human IgG1, kappa, V domains shown)
VH: B1 VH with V68A, T74E, N77S
VL: B1 VL
B26: humanized anti-human PD-L1 monoclonal antibody VLS9-VHS6 (antibody, human IgG1, kappa, V domains shown)
VH: B1 VH with V68A, T74E
VL: B1 VL with I36Y, H37Q

T1 sequence (Q9NZQ7 19-239 limits assumed): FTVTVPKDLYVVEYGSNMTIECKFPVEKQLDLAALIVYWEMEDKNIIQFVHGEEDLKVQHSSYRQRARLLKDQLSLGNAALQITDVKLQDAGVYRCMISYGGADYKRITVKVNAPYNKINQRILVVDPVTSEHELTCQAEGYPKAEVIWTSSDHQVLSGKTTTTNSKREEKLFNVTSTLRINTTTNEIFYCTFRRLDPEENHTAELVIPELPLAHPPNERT

The first test has as its target T1, recombinant human PD-L1 (Sino Biological Inc.) (human, UniProt Q9NZQ7 19-239). Nature of the test: SPR, Biacore X100. On the procedure:
This instrument utilizes optical surface plasmon resonance technology to detect the association and dissociation between the molecules coated on the biochip and the molecules to be tested. Association constants and dissociation constants were analyzed and calculated by Biacore X100 evaluation software. […]
A general note: SPR reads the build-up and loss of mass on a sensor chip optically.
As for B1, the Kd (as a rule, a measure of binding affinity in units of concentration) was found to be 1.71 nM; the koff (as a rule, the first-order rate constant of dissociation) amounted to 0.000584 s⁻¹; the kon (usually the second-order rate constant of association) is 341000 M⁻¹ s⁻¹.

On to B2, for which the Kd amounted to 1.39 nM, the koff amounted to 0.000477 s⁻¹ and the kon is 342000 M⁻¹ s⁻¹.

B3: the Kd worked out at 2.93 nM, the koff was 0.000747 s⁻¹ and the kon worked out at 255000 M⁻¹ s⁻¹.

Turning to B4, the Kd came to 3.16 nM, the koff amounted to 0.00108 s⁻¹ and the kon worked out at 341000 M⁻¹ s⁻¹.

Regarding B5, the Kd was determined as 1.56 nM, the koff was found to be 0.000528 s⁻¹ and the kon was determined as 338000 M⁻¹ s⁻¹.

Consider B6, for which the Kd was 1.94 nM, the koff was determined as 0.00072 s⁻¹ and the kon stood at 372000 M⁻¹ s⁻¹.

As for B7, the Kd was found to be 3.23 nM, the koff is 0.000994 s⁻¹ and the kon stood at 307000 M⁻¹ s⁻¹.

Turning to B8, the Kd is 2.56 nM, the koff worked out at 0.000833 s⁻¹ and the kon was found to be 326000 M⁻¹ s⁻¹.

Another test deals with T1, recombinant human PD-L1 (Sino …). Nature of the test: ELISA, human PD-L1 coated. On the procedure:
(§1) A 96-well high-adsorption ELISA plate was coated with 1 μg/mL of the recombinant human PD-L1 (Sino Biological Inc.) at 100 μL per well using carbonate buffer solution, pH=9.6 at 4° C. overnight. The plate was washed 5 times with PBST, and then blocked using PBST with 1% BSA, 300 μL/well, and incubated at 25° C. for 1 hour, and then washed 5 times with PBST. […] The horseradish peroxidase-labeled anti-human IgG antibody (Chemicon, catalog number AP309P) diluted 1:10000 in PBST with 1% BSA was then added, 100 μL per well, and incubated at 25° C. for 1 hour. The plate was washed 5 times with PBST. The colorimetric substrate TMB was added, 100 μL/well, and developed at room temperature for 10 minutes. 1M H₂SO₄ was added, 100 μL/well, to stop the development. The absorbance at 450 nm was read on a microplate reader.
On the technique in general: In an ELISA, binding on a coated surface is turned into a signal by an enzyme label.
Consider B1, for which the EC50 (usually the concentration that produces a half-maximal response) came to 0.067 nM.

As for B2, the EC50 stood at 0.046 nM.

Regarding B3, the EC50 was found to be 0.063 nM.

Regarding B4, the EC50 amounted to 0.067 nM.

Regarding B5, the EC50 came out at 0.075 nM.

As to B6, the EC50 was 0.06 nM.

For B7, the EC50 came to 0.059 nM.

With B8, the EC50 is 0.048 nM.

A further test has the same target. Nature of the test: PD-L1/CD80 blocking assay, competitor CD80, format not described.
For B1, the IC50 (commonly the concentration needed to halve the response being measured) came out at 0.89 nM.

In the case of B2, the IC50 was 0.802 nM.

For the molecule B3, the IC50 was 0.804 nM.

For the molecule B4, the IC50 worked out at 0.865 nM.

In the case of B5, the IC50 turned out to be 0.813 nM.

As to B6, the IC50 is 0.755 nM.

Consider B7, for which the concentration for half-maximal inhibition (IC50) turned out to be 0.857 nM.

B8: the IC50 was determined as 0.795 nM.

For a further test the target is unchanged. The test can be described thus: affinity determination (dissociation constant), method not stated.
As to B1, the koff came to 0.000672 s⁻¹.

With B9, the koff was 0.00438 s⁻¹.

Regarding B10, the koff came out at 0.00597 s⁻¹.

As for B11, the koff is 0.000994 s⁻¹.

B12: the koff is 0.000452 s⁻¹.

Turning to B2, the koff turned out to be 0.000486 s⁻¹.

Regarding B13, the koff is 0.0058 s⁻¹.

With B14, the koff turned out to be 0.000763 s⁻¹.

As for B15, the koff stood at 0.00532 s⁻¹.

Turning to B16, the koff turned out to be 0.00121 s⁻¹.

With B17, the koff is 0.00121 s⁻¹.

In the case of B18, the koff was determined as 0.00599 s⁻¹.

Turning to B19, the koff stood at 0.0052 s⁻¹.

Turning to B20, the koff stood at 0.000652 s⁻¹.

As for B21, the koff stood at 0.00424 s⁻¹.

Turning to B22, the koff came out at 0.00544 s⁻¹.

As to B23, the koff amounted to 0.00156 s⁻¹.

For B24, the koff was 0.000841 s⁻¹.

Regarding B25, the off-rate constant (koff) amounted to 0.00325 s⁻¹.

Regarding B26, the koff was 0.00618 s⁻¹.

The target of another test is T2, recombinant human PD-L1-Fc protein (human, UniProt Q9NZQ7 19-238, limits assumed).
T2 construct: Prepared by Beijing Hanmi Pharmaceutical; The GenBank number is NP_001254635.1
T2 sequence (Q9NZQ7 19-238 limits assumed): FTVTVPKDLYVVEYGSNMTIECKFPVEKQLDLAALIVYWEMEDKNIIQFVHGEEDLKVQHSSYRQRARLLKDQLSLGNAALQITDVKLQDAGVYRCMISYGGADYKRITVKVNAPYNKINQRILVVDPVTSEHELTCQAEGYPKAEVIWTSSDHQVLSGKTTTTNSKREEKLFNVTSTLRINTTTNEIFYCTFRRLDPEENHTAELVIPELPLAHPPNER
The test can be described thus: competition ELISA: PD-L1-Fc coated, competitor biotin-labelled PD-1-Fc. On the procedure:
as §1, with “PD-L1-Fc” for “PD-L1 (Sino Biological Inc.)”, “Streptavidin-HRP (BD Pharmingen,” for “horseradish peroxidase-labeled anti-human IgG antibody (Chemicon,”, “554066)” for “AP309P)”, “1:1000” for “1:10000”
For the molecule B1, the IC50 stood at 0.749 nM.

Regarding B2, the IC50 amounted to 0.666 nM.

On to B3, for which the IC50 turned out to be 0.617 nM.

As to B4, the IC50 was determined as 0.756 nM.

For B5, the IC50 came to 0.613 nM.

As for B6, the IC50 is 0.585 nM.

With B7, the IC50 amounted to 0.725 nM.

For B8, the IC50 stood at 0.567 nM.

(Values after patent publication US20240301068A1 (BEIJING HANMI PHARMACEUTICAL, published 2024).)
